Patent publication US20240261333A1 (published 2024)

How the values were obtained:
Test in all cases: anti-FLAG co-IP from lysate of N-FLAG B3GNT2 cells, mass spectrometry
RCN1 = target: T1, RCN1 (human, UniProt Q15293 30-331)
T1 construct: also called NP_002892.1
T1 sequence (looked up): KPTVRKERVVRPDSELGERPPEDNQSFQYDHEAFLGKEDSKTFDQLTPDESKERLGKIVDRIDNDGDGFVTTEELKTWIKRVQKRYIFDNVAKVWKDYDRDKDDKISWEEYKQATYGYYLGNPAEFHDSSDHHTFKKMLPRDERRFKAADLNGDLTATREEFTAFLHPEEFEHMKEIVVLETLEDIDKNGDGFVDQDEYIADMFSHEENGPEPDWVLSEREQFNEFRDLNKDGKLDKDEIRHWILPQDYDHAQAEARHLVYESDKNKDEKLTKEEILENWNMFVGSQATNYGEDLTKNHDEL

UBTF = target: T2, UBTF (human, UniProt P17480-2 1-727, limits assumed)
T2 construct: also called NP_001070151.1 (+3)
T2 sequence (looked up): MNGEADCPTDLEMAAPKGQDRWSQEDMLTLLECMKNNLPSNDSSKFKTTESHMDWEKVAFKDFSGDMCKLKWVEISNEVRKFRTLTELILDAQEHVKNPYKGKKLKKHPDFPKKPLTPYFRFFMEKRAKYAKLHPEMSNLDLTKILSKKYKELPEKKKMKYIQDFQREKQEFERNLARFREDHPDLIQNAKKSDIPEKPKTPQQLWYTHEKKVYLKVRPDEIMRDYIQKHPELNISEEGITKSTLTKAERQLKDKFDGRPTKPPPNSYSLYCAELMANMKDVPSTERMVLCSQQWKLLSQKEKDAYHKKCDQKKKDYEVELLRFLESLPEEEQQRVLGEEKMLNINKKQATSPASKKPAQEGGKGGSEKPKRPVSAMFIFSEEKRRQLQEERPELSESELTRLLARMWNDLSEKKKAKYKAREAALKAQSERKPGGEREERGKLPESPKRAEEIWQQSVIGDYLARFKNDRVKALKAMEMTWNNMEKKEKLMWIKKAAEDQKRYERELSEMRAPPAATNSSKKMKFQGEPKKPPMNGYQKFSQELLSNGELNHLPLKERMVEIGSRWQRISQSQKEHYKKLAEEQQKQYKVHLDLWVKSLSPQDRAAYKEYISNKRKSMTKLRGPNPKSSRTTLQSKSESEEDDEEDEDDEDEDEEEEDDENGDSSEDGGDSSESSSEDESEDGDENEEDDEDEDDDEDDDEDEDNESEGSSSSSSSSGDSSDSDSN

ERP44 = target: T3, ERP44 (human, UniProt Q9BS26 30-406)
T3 construct: also called NP_055866.1
T3 sequence (looked up): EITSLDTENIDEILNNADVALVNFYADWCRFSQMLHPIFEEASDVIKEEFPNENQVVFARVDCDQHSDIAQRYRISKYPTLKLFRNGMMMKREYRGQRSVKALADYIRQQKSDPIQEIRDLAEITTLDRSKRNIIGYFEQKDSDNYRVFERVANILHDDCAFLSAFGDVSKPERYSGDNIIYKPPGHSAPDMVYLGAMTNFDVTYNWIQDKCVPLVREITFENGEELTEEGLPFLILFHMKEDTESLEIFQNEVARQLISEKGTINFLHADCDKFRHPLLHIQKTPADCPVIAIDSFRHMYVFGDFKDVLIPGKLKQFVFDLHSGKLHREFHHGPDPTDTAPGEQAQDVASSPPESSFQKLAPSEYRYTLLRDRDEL

H1FX = target: T4, H1FX (human, UniProt Q92522 2-213)
T4 construct: also called NP_006017.1

SLC25A22 = target: T5, SLC25A22 (human, UniProt Q9H936 1-323)
T5 construct: also called NP_001177990.1
T5 sequence (looked up): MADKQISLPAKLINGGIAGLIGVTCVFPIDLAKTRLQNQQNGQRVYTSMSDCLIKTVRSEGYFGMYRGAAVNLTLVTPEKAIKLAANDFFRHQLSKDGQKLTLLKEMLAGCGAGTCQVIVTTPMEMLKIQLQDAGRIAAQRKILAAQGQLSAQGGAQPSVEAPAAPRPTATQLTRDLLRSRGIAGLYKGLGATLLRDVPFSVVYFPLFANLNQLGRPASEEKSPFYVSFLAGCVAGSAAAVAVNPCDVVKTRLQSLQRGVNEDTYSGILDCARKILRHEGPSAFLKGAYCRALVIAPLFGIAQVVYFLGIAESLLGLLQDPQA

Measured: co-IP mass spectrometry count

T4 sequence (Q92522 2-213 limits assumed): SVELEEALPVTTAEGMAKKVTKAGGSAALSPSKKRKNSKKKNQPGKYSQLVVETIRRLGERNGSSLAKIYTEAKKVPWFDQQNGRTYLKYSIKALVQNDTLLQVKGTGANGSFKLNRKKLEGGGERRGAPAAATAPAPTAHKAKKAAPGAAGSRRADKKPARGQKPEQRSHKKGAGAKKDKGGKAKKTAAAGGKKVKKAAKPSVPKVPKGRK

B1: N-terminal FLAG tagged B3GNT2 (enzyme, human, UniProt Q9NY97 1-397, looked up)
chain: MSVGRRRIKLLGILMMANVFIYFIMEVSKSSSQEKNGKGEVIIPKEKFWKISTPPEAYWNREQEKLNRQYNPILSMLTNQTGEAGRLSNISHLNYCEPDLRVTSVVTGFNNLPDRFKDFLLYLRCRNYSLLIDQPDKCAKKPFLLLAIKSLTPHFARRQAIRESWGQESNAGNQTVVRVFLLGQTPPEDNHPDLSDMLKFESEKHQDILMWNYRDTFFNLSLKEVLFLRWVSTSCPDTEFVFKGDDDVFVNTHHILNYLNSLSKTKAKDLFIGDVIHNAGPHRDKKLKYYIPEVVYSGLYPPYAGGGGFLYSGHLALRLYHITDQVHLYPIDDVYTGMCLQKLGLVPEKHKGFRTFDIEEKNKNNICSYVDLMLVHSRKPQEMIDIWSQLQSAHLKC
notes: Bait of the co-IP; pulled down from cell lysate with mouse anti-FLAG antibody; also called N-FLAG B3GNT2; N-term FLAG; not shown: N-terminal FLAG tag
0: all assays above
